What was measured:
[1] = target: T1, soluble cynomolgus monkey PD-1 (scyno PD-1 hFc) cleaved to remove Fc portion (cynomolgus monkey, UniProt B0LAJ3 25-170); assay: Biacore, mAb captured on F(ab)2 goat anti-human Fc, analyte scyno PD-1 hFc cleaved of Fc
[2] = target: T2, human PD-1 expressed on the surface of cells (NSO cells expressing human PD-1; MNFAT-luc2/PD-1 Jurkat cells) (human, UniProt Q15116 21-288); assay: FACS blocking on NSO cells expressing human PD-1, 1:4 dilutions, MFI; blocked ligand: biotinylated sPD-L1, streptavidin-PE
T2 construct: also called cell surface PD-1; PDCD1 transfected NSO cells expressing PD-1
T2 sequence (Q15116 21-288): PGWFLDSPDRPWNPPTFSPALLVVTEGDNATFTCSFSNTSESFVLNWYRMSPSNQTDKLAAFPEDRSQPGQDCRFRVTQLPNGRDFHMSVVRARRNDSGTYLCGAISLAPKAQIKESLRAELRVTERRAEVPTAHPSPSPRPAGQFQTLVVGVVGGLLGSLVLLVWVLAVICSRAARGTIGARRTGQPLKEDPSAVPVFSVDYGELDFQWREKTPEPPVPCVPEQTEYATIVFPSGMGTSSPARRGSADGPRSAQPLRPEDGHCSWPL

[3] = target: T3, soluble human PD-1 (the extracellular domain of human PD-1 fused to a His tag) (human, UniProt Q15116 25-170); assay: Biacore, mAb captured on F(ab)2 goat anti-human Fc, analyte shPD-1 His
T3 construct: also called shPD-1 His; shPD-1-His; not shown: His tag
T3 sequence (Q15116 25-170): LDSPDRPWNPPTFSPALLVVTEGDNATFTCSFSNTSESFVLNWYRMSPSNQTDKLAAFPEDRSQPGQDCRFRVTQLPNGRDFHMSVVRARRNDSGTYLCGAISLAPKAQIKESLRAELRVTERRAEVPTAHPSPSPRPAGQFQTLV

[4] = target: T2, human PD-1 expressed on the surface of …; assay: FACS blocking on NSO cells expressing human PD-1, 1:4 dilutions, MFI; blocked ligand: biotinylated sPD-L2, streptavidin-PE
[5] = target: T2, human PD-1 expressed on the surface of …; assay: FACS saturation binding on NSO cells expressing human PD-1, goat anti-human-APC, MFI, 1:4 dilutions
[6] = target: T3, soluble human PD-1 (the extracellular …); assay: ELISA: shPD-1 His coated at 1 ug/ml, goat anti-mouse (H+L)-HRP, RLU
[7] = target: T4, soluble cynomolgus monkey PD-1 (the extracellular domain of cynomolgus monkey PD-1 fused to a human Fc Region) (cynomolgus monkey, UniProt B0LAJ3 25-170); assay: ELISA: scyno-PD-1-TEV-Fc coated at 0.5 ug/ml, goat anti-mouse (H+L)-HRP, RLU
T4 construct: also called scyno-PD1 Fc; scynoPD-1-hFc; not shown: Human Fc Region and any linker or cleavage site between the extracellular domain and the Fc
T4 sequence (B0LAJ3 entry or part of it limits assumed): as the sequence (Q15116 25-170) above, with D2E, P10A, V19L, T35A, Q75R, T144A counted along it

[8] = target: T1, soluble cynomolgus monkey PD-1 (scyno …); assay: Biacore, mAb captured on Protein A, analyte scyno PD-1 hFc cleaved of Fc
[9] = target: T3, soluble human PD-1 (the extracellular …); assay: Biacore, mAb captured on Protein A, analyte shPD-1 His

T1 sequence (B0LAJ3 entry or part of it limits assumed): as the sequence (Q15116 25-170) above, with D2E, P10A, V19L, T35A, Q75R, T144A counted along it

Row | Binder | Kd [1] | IC50 (read off the curve) [2] | Kd [3] | IC50 (read off the curve) [4] | EC50 (read off the curve) [5] | EC50 (read off the curve) [6] | EC50 (read off the curve) [7] | Kd [8] | Kd [9]
1 | hPD-1 mAb 9 (1.1) IgG4 (P) (antibody, also called hPD-1 mAb 9 IgG4 (P)) heavy: not shown light: DIQMTQSPSSLSASVGDRVTITCRASENIYSYLAWYQQKPGKAPKLLIYNAKTLAAGVPSRFSGSGSGTDFTLTISSLQPEDFATYYCQHHYAVPWTFGQGTKLEIKRTVAAPSVFIFPPSDEQLKSGTASVVCLLNNFYPREAKVQWKVDNALQSGNSQESVTEQDSKDSTYSLSSTLTLSKADYEKHKVYACEVTHQGLSSPVTKSFNRGEC | 15.1 nM | ~0.03 ug/test | 9.5 nM | ~0.1 ug/test | ~0.5 µg/mL |  |  |  | 
2 | PD-1 mAb 1 (antibody, V domains shown, Murine monoclonal antibody) VH: DVQLQESGPGRVKPSQSLSLTCTVTGFSITNDYAWNWIRQFPGNKLEWMGHITYSGSTSYNPSLKSRISITRDTSKNHFFLQLSSVTPEDTATYYCARDYGSGYPYTLDYWGQGTSVTVSS VL: QIVLTQSPALMSASPGEKVTMTCSATSIVSYVYWYQQKPGSSPQPWIYLTSNLASGVPARFSGSGSGTSYSLTISSMEAEDAATYYCQQWSDNPYTFGGGTKLEIK |  |  |  |  |  | ~0.3 nM | ~0.3 nM |  | 
3 | hPD-1 mAb 7 (1.1) IgG1 (AA) (antibody, V domains shown, VH1 with VL1) VH: QVQLVQSGAEVKKPGASVKVSCKASGYSFTSYWMNWVRQAPGQGLEWIGVIHPSDSETWLDQKFKDRVTITVDKSTSTAYMELSSLRSEDTAVYYCAREHYGTSPFAYWGQGTLVTVSS VL: EIVLTQSPATLSLSPGERATLSCRANESVDNYGMSFMNWFQQKPGQPPKLLIHAASNQGSGVPSRFSGSGSGTDFTLTISSLEPEDFAVYFCQQSKEVPYTFGGGTKVEIKR |  | ~0.01 ug/test |  | ~0.01 ug/test | ~0.2 µg/mL |  |  |  | 
4 | PD-1 mAb 2 (antibody, V domains shown, Murine monoclonal antibody) VH: DVQLVESGGGLVQPGGSRKLSCAASGFVFSSFGMHWVRQAPEKGLEWVAYISSGSMSISYADTVKGRFTVTRDNAKNTLFLQMTSLRSEDTAIYYCASLSDYFDYWGQGTTLTVSS VL: DVVMSQTPLSLPVSLGDQASISCRSSQSLVHSTGNTYLHWYLQKPGQSPKLLIYRVSNRFSGVPDRFSGSGSGTDFTLKISRVEAEDLGVFFCSQTTHVPWTFGGGTKLEIK |  |  |  |  |  | ~0.3 nM | ~0.3 nM | 14.3 nM | 10.2 nM

Continued, values first:

Row | Kd [1] | IC50 (read off the curve) [2] | Kd [3] | IC50 (read off the curve) [4] | EC50 (read off the curve) [5] | EC50 (read off the curve) [6] | EC50 (read off the curve) [7] | Kd [8] | Kd [9] | Binder
5 | 9.3 nM | ~0.06 ug/test | 10.9 nM | ~0.1 ug/test | ~0.2 µg/mL |  |  |  |  | hPD-1 mAb 9 (1.1) IgG1 (AA) (antibody, also called hPD-1 mAb 9 IgG1 (AA)) heavy: not shown light: DIQMTQSPSSLSASVGDRVTITCRASENIYSYLAWYQQKPGKAPKLLIYNAKTLAAGVPSRFSGSGSGTDFTLTISSLQPEDFATYYCQHHYAVPWTFGQGTKLEIKRTVAAPSVFIFPPSDEQLKSGTASVVCLLNNFYPREAKVQWKVDNALQSGNSQESVTEQDSKDSTYSLSSTLTLSKADYEKHKVYACEVTHQGLSSPVTKSFNRGEC
6 |  |  |  |  |  | ~0.3 nM | ~0.3 nM |  |  | PD-1 mAb 4 (antibody, V domains shown, Murine monoclonal antibody) VH: DVQLVESGGGLVQPGGSRKLSCAASGFVFSSFGMHWVRQAPEKGLEWVAYISSGSMSISYADTVKGRFTVTRDNAKNTLFLQMTSLRSEDTAIYYCASLTDYFDYWGQGTTLTVSS VL: DVVMSQTPLSLPVSLGDQASISCRSSQSLVHSTGNTYFHWYLQKPGQSPKLLIYRVSNRFSGVPDRFSGSGSGTDFTLKISRVEAEDLGVYFCSQTTHVPWTFGGGTKLEIK
7 |  | ~0.04 ug/test |  | ~0.1 ug/test | ~0.5 µg/mL |  |  |  |  | hPD-1 mAb 2 IgG1 (AA) (antibody, V domains shown) VH: EVQLVESGGGLVQPGGSLRLSCAASGFVFSSFGMHWVRQAPGKGLEWVAYISSGSMSISYADTVKGRFTISRDNAKNTLYLQMNSLRTEDTALYYCASLSDYFDYWGQGTTVTVSS VL: DVVMTQSPLSLPVTLGQPASISCRSSQSLVHSTGNTYLHWYLQKPGQSPQLLIYRVSNRFSGVPDRFSGSGSGTDFTLKISRVEAEDVGVYYCSQTTHVPWTFGQGTKLEIKR
